{
  "source": "patent US20210379147A1",
  "about": "“METHOD AND SYSTEM FOR TREATING CANCER UTILIZING TINAGL1” (The Trustees of Princeton University, priority 2018, published 2021)",
  "key": {"[1]": {"system": "primary tumors and lung metastases", "assay": "IHC staining of tumor samples from treatment groups (Ki67, Casp3, CD31, α-SMA)", "type": "in vivo, NSG female mice", "procedure": "FIGS. 17F-17I are graphs quantifying positives cells per field where primary tumors were collected from indicated treatment groups from FIG. 17D and then subjected to IHC staining with indicated antibodies, including % Ki67^+ (17F), % Casp3^+ (17G), % CD31^+ (17H), and % α-SMA^+ (17I).\nTIC staining was performed as previously described (Wan et al., 2014). Briefly, Paraffin-embedded primary tumor or lung samples were sliced into 4 μm thickness. The slides were baked overnight at 60° C. Next, the tissue slides were washed with PBS after deparaffinization and hydration and then boiled in citrate buffer at 100° C. for 40 min. After treated with 3% H2O2 for 30 min to block endogenous peroxidase, slides were incubated at 4° C. overnight with Ki67 (Leica Biosystem, Ki67-MM1-L-CE-S), cleaved caspase-3 (Cell signaling, 9661S), p-EGFR (Cell signaling, 3777), p-FAK (Cell signaling, 8556), CD31 (Cell signaling, 77699), -SMA (Sigma, A5228), or Tinagl1 (Sigma, HPA048695) antibodies. Following washes with PBS, slides were then incubated with HRP-conjugated goat anti-rabbit or mouse secondary antibody (Genetech) for 30 min at room temperature. Sections were stained by DAB and then counterstained with Gill hematoxylin according to manufacturer's instructions."}, "SUM159-M1a cells": {"system": "SUM159-M1a cells", "assay": "Cell adhesion assay of SUM159-M1a cells on coated plates (luciferase)", "type": "cell-based, human", "procedure": "FIG. 15A is an graph of attached cells quantified by luciferase assay where a 96-well plate was first coated with 10 μg/ml of FN, then SUM159-M1a cells were incubated with 10 μg/ml of indicated antibodies or r-Tinagl1 at 4 C for 30 min, after when cells were seeded on the plate at 30 k cells per well, and 30 min after seeding, the plate was washed with PBS and quantified by luciferase assay.\nIntegrin α5β1 and αvβ1 are the major receptors for FN, and the interaction between FN and the integrin receptors triggers the activation of the downstream FAK signal pathway. To test whether Tinagl1 may interfere with cell adhesion mediated by the interaction between FN and its receptors integrin α5β1 and αvβ1, SUM159-M1a cells that were pre-incubated with r-Tinagl1 were seeded on the plates coated with FN or other ECM proteins for various period of time (5 min to 2 hours) and the number of adhered cells were quantified after washing. […] Next, SUM159-M1a cells that were pre-incubated with r-Tiangl1 or various integrin-blocking antibodies were seeded on the plate coated with FN, and relative numbers of attached cells were measured.\n96-wells were coated with 10 μg/ml of indicated proteins. […] Cells were then lysed, and luciferase activity which represents cell number was measured using the Glomax 96 microplate luminometer (Promega). […]"}, "SUM159-M1a tumor cells": {"system": "SUM159-M1a tumor cells", "assay": "3D in vitro tumor sphere growth assay", "type": "cell-based, human", "procedure": "To directly test the tumor-specific inhibitory effects of Tinagl1, a 3D in vitro tumor sphere growth assay was performed. Tinagl1-overexpressing SUM159-M1a tumor cells formed significant fewer and smaller spheres."}, "Tinagl1-EGFR interaction": {"biological_target": "T1, Tinagl1-EGFR interaction (Homo sapiens, UniProt P00533)", "T1 construct": "host or cells: HEK293T", "assay": "Competition IP for Tinagl1-HA / GFP-EGFR interaction in HEK293T lysate", "type": "binding", "description": "FIG. 13C is an image of IP and WB assays where HEK293T cells co-expressing Tinagl1-HA and GFP-EGFR were lysed and divided into multiple groups, then PBS or indicated amount of proteins was added into each group, then IP followed by WB assays were performed.\nFIG. 13D is a graph quantifying the ability of the indicated protein to compete with Tinagl1-EGFR interaction, by measuring GFP-EGFR level in the groups from FIG. 13C.\nWhether Tinagl1 inhibits EGFR activation in a similar manner was tested. […] Whether Tinagl1 and EGF compete with each other to interact with EGFR was tested."}, "FAK": {"system": "FAK", "assay": "FN- or EGF-dependent FAK phosphorylation (WB)", "type": "cell-based", "conditions": "tested at 10, 100, 1000 and 10,000 ng/mL", "source_text": "For WB analysis, cells were collected and lysed with IP lysis buffer described above. After boiled with SDS laemmli buffer, the samples were resolved with SDS-PAGE gel and immunoblotted with standard protocols.\nFN is the major ligand for integrin α5β1 and αvβ1, and triggers integrin/FAK signal pathway after binding. FN was employed to evaluate the effects of Tinagl1 on the integrin/FAK pathway. […] Likewise, the activation of FAK by FN was attenuated in the cells overexpressing Tinagl1."}, "SUM159-M1a": {"system": "SUM159-M1a", "assay": "SUM159-M1a orthotopic tumors, single or combined agent treatment", "type": "in vivo, NSG female mice", "conditions": "SUM159-M1a model", "procedure": "FIG. 17D is an image of WB analyses where NSG female mice were injected with 10^4 M1a cells by MFP injection, and treated with the indicated reagents twice per week when tumors reached to 2 mm in diameter, then after 5 weeks of the treatments, the primary tumors of each group were collected and activation of EGFR and FAK in primary tumor of each group was tested by WB.\nFIG. 17E is a graph illustrating tumor volumes of each treatment group from FIG. 17D.\nFor xenograft studies, 8-weeks immunocompromised NOD Scid Gamma (NSG) or immunocompetent FVB females were used. Cells were suspended in 10 μl of PBS for mammary gland injection (MFP), or were suspended in 100 μl of PBS for intravenous injection. For human patient-derived xenograft (PDX, HCL001, kindly provided by Dr. Alana Welm) study, we followed the standard protocol for PDX transplantation, maintenance and digestion of the tumors (DeRose et al., 2011). 2×10^4 cells were suspended in 10 μl of PBS and subjected to MFP injection. […] Primary tumors were quantified once per week via caliper measurement. All cell lines used for lung metastasis experiments were stably labeled with a firefly luciferase expressing vector and were monitored by weekly bioluminescent imaging (BLI). At protocol-defined endpoints, lungs were dissected and fixed in bouin's solution and the metastatic lesions were counted."}},
  "data": [
    {"molecule": "r-Tinagl1: full length recombinant human Tinagl1 with 6×His tag at the C-terminus [SEQ ID NO.: 24], expressed in HEK293T cells (protein, listed as Homo sapiens, C-terminal 6xHis tag) MWRCPLGLLLLLPLAGHLALGAQQGRGRRELAPGLHLRGIRDAGGRYCQEQDLCCRGRADDCALPYLGAICYCDLFCNRTVSDCCPDFWDFCLGVPPPFPPIQGCMHGGRIYPVLGTYWDNCNRCTCQENRQWQCDQEPCLVDPDMIKAINQGNYGWQAGNHSAFWGMTLDEGIRYRLGTIRPSSSVMNMHEIYTVLNPGEVLPTAFEASEKWPNLIHEPLDQGNCAGSWAFSTAAVASDRVSIHSLGHMTPVLSPQNLLSCDTHQQQGCRGGRLDGAWWFLRRRGVVSDHCYPFSGRERDEAGPAPPCMMHSRAMGRGKRQATAHCPNSYVNNNDIYQVTPVYRLGSNDKEIMKELMENGPVQALMEVHEDFFLYKGGIYSHTPVSLGRPERYRRHGTHSVKITGWGEETLPDGRTLKYWTAANSWGPAWGERGHFRIVRGVNECDIESFVLGVWGRVGMEDMGHHVDHHHHHH", "values": [
      {"measurement": "CD31+ endothelium", "setting": "[1]; primary and lung metastasis", "result": "significantly reduced"},
      {"measurement": "tumor cell proliferation (Ki67 staining)", "setting": "[1]; primary tumor and lung metastatic nodules", "result": "strong anti-proliferative effects on both primary tumors and lung metastases"},
      {"measurement": "cell adhesion on FN or other ECM proteins", "setting": "SUM159-M1a cells; 10 μg/ml r-Tinagl1 pre-incubation, 5 min to 2 hours", "result": "blocked cell adhesion mediated by FN but not other ECM proteins"},
      {"measurement": "cell adhesion on FN (antibody blocking assay)", "setting": "SUM159-M1a cells; 10 μg/ml, 30 min after seeding", "result": "significantly reduced cell adhesion"},
      {"measurement": "number and size of tumor spheres", "setting": "SUM159-M1a tumor cells", "result": "reduced the number and size of tumor spheres"},
      {"measurement": "competition with Tinagl1-HA to interact with EGFR", "setting": "Tinagl1-EGFR interaction", "result": "competed"},
      {"measurement": "FN-dependent activation of FAK signaling (FAK phosphorylation at Tyr397)", "setting": "FAK", "result": "significantly reduced FN-dependent activation of FAK signaling"},
      {"measurement": "lung metastasis", "setting": "SUM159-M1a", "result": "stronger effect than single treatment of Erlotinib"}
    ]}
  ]
}
